This passage reports Kd, Kd determined by kinetics and IC50 results from publication PMC8831599, “Defining molecular glues with a dual-nanobody cannabidiol sensor” (Nature Communications, 2022).

Test [1] addresses Biotin-DB21 (biotinylated Avi-DB21). In words: BLI; biotinylated DB21 on streptavidin probe, tag-free CA14 as analyte, no CBD; 30 °C; 25 mM HEPES pH 7.4, 100 mM NaCl, no TCEP, 0.1% Tween-20, 0.05 mg/mL BSA; kinetic and steady-state analysis differ. (In general: BLI is a label-free optical method that tracks binding on a fibre tip over time.)
The target is the same in test [2]. In words: AlphaScreen or HTRF; competition without CBD: 200 nM His-CA14 on acceptor beads, 67 nM biotinylated DB21 (wild type or mutant) on streptavidin donor beads, label-free protein titrated; 25 mM HEPES pH 7.4, 100 mM NaCl, no TCEP, 0.1% Tween-20, 0.05 mg/mL BSA. (Alpha assays give light when donor and acceptor beads are brought close together.)

B1: CA14 anchor binder nanobody, tag-free (VHH)
VHH: EVQLQASGGGFVQPGGSLRLSCAASGSTSRQYDMGWFRQAPGKEREFVSAISSNQDQPPYYADSVKGRFTISRDNSKNTVYLQMNSLRAEDTATYYCAFKQHHANGAYWGQGTQVTVSS
As for B1, in test [1], the Kd (as a rule, the equilibrium constant for the complex coming apart) turned out to be 19 µM and the Kd determined by kinetics is 3 µM. The IC50 (in general, the concentration that gives 50% inhibition) in test [2] was determined as 20 µM.
